Experimental data taken from article PMC9130146, “Alteration in DNA-binding affinity of Wilms tumor 1 protein due to WT1 genetic variants associated with steroid - resistant nephrotic syndrome in children”.

Tests used:
Assay in all cases: MST; 50 mM Na2HPO4.12H2O, 150 mM NaCl, 0.005% Tween; pH not stated; room temperature; 80 nM DNA; protein from 1-4 mM (highest) downward
[1] = molecular target: WT1 ZF2-4 p.Gln447Pro (Homo sapiens (cDNA from A549 cells), UniProt P19544-2 334-423, Q357P); details: protein: recombinant; tags: no tag stated; label: 5' Cyanine5; single strand
Sequence of WT1 ZF2-4 p.Gln447Pro (P19544 other isoform, or with tags, fused parts or gaps Q357P | p.Q447P p.Q447P): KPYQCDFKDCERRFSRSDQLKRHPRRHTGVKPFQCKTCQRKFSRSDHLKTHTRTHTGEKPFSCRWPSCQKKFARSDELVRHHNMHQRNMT

[2] = molecular target: WT1 ZF2-4 p.His450Arg (Homo sapiens (cDNA from A549 cells), UniProt P19544-2 334-423, H360R); details: protein: recombinant; tags: no tag stated; label: 5' Cyanine5; single strand
Sequence of WT1 ZF2-4 p.His450Arg (P19544 other isoform, or with tags, fused parts or gaps H360R | p.H450R p.H450R): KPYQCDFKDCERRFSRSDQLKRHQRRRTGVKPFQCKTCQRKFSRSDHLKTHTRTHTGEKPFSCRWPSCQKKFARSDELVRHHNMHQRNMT

[3] = molecular target: WT1 ZF2-4 p.Cys433Tyr (Homo sapiens (cDNA from A549 cells), UniProt P19544-2 334-423, C343Y); details: protein: recombinant; tags: no tag stated; label: 5' Cyanine5; single strand
Sequence of WT1 ZF2-4 p.Cys433Tyr (P19544 other isoform, or with tags, fused parts or gaps C343Y | p.C433Y p.C433Y): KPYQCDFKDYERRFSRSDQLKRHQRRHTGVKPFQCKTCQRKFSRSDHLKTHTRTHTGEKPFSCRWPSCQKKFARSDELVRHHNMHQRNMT

[4] = molecular target: WT1 ZF2-4 wild type (-KTS) (Homo sapiens (cDNA from A549 cells), UniProt P19544-2 334-423); details: protein: recombinant; tags: no tag stated; pET22b, reverse primer has a stop codon; label: 5' Cyanine5; single strand
Sequence of WT1 ZF2-4 wild type (-KTS) (P19544 other isoform, or with tags, fused parts or gaps): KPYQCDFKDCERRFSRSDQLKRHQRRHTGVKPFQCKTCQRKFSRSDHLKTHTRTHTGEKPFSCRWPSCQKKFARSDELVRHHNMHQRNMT

[5] = molecular target: WT1 ZF2-4 p.Arg463Ter (Homo sapiens (cDNA from A549 cells), UniProt P19544-2 334-372); details: protein: recombinant; tags: no tag stated; label: 5' Cyanine5; single strand
Sequence of WT1 ZF2-4 p.Arg463Ter (P19544 351-389): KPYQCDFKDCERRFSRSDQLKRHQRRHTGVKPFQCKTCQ

[6] = molecular target: WT1 ZF2-4 p.His474Arg (Homo sapiens (cDNA from A549 cells), UniProt P19544-2 334-423, H384R); details: protein: recombinant; tags: no tag stated; label: 5' Cyanine5; single strand
Sequence of WT1 ZF2-4 p.His474Arg (P19544 other isoform, or with tags, fused parts or gaps H384R | p.H474R p.H474R): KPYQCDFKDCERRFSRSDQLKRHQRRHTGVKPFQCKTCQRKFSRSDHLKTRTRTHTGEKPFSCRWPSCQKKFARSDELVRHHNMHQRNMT

[7] = molecular target: WT1 ZF2-4 p.Asp469Asn (Homo sapiens (cDNA from A549 cells), UniProt P19544-2 334-423, D379N); details: protein: recombinant; tags: no tag stated; label: 5' Cyanine5; single strand
Sequence of WT1 ZF2-4 p.Asp469Asn (P19544 other isoform, or with tags, fused parts or gaps D379N | p.D469N p.D469N): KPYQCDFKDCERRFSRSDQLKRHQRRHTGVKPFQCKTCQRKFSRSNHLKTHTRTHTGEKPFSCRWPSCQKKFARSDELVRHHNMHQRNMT

[8] = molecular target: WT1 ZF2-4 p.Arg467Trp (Homo sapiens (cDNA from A549 cells), UniProt P19544-2 334-423, R377W); details: protein: recombinant; tags: no tag stated; label: 5' Cyanine5; single strand
Sequence of WT1 ZF2-4 p.Arg467Trp (P19544 other isoform, or with tags, fused parts or gaps R377W | p.R467W p.R467W): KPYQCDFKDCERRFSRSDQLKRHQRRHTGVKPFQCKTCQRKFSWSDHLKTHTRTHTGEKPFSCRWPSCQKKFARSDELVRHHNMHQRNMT

[9] = molecular target: WT1 ZF2-4 p.Arg439Pro (Homo sapiens (cDNA from A549 cells), UniProt P19544-2 334-423, R349P); details: protein: recombinant; tags: no tag stated; label: 5' Cyanine5; single strand
Sequence of WT1 ZF2-4 p.Arg439Pro (P19544 other isoform, or with tags, fused parts or gaps R349P | p.R439P p.R439P): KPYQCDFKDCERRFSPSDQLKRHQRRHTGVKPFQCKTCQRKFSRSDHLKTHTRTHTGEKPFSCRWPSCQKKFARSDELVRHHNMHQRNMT

GTGGAGGCGGCGGGGGCGGCAGCAACAG (ssDNA) [EGR1 DNA motif, Cy5 oligo]
Kd [1]: 24.9 ± 4.2 µM | Kd [2]: 878 ± 164 µM | Kd [3]: 89.4 ± 7 µM | Kd [4]: 111 ± 7.4 µM | Kd [5]: 324 ± 13.3 µM | Kd [6]: 48.4 ± 6 µM | Kd [7]: 12.1 ± 1.7 µM | Kd [8]: 94.6 ± 9.8 µM | Kd [9]: 319 ± 72.7 µM
